Measured values as given in patent publication US20120231006A1 (Amgen, published 2012).
Each block holds one binder with its values, some of them ahead of it.

Experiments:
human Orai1 = human Orai1 (human, UniProt Q96D31 1-301); assay: cell-based or functional assay
[1] = target: T1, mOrai1-hOrai1 ECL2 (AESVIV) protein (human/mouse chimera, UniProt Q8BWG9 1-304 (mouse entry)); assay: flow cytometry on HEK-293 cells transfected with the chimera (loss of binding experiment)
T1 construct: also called Ch

[2] = target: T2, mOrai1-hOrai1 ECL2 (…) protein (human/mouse chimera, UniProt Q8BWG9 1-304 (mouse entry)); assay: as above
T2 construct: also called Ch
T2 sequence (Q8BWG9 other isoform, or with tags, fused parts or gaps): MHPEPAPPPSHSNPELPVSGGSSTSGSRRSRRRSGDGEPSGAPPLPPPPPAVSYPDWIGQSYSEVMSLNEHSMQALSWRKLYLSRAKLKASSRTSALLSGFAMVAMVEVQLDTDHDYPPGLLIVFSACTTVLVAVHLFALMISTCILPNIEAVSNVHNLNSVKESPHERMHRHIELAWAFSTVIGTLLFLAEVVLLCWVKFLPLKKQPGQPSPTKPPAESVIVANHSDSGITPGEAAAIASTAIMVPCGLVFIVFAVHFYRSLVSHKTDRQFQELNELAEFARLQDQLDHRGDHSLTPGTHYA

[3] = target: T3, mOrai1-hOrai1 ECL2 (SPTKPPAE) protein (human/mouse chimera, UniProt Q8BWG9 1-304 (mouse entry)); assay: as above
T3 construct: also called Ch

[4] = target: T4, mOrai1-hOrai1 ECL2 (…) protein (human/mouse chimera, UniProt Q8BWG9 1-304 (mouse entry)); assay: as above; remark: listed apart in the source
T4 construct: also called Ch
T4 sequence (Q8BWG9 other isoform, or with tags, fused parts or gaps): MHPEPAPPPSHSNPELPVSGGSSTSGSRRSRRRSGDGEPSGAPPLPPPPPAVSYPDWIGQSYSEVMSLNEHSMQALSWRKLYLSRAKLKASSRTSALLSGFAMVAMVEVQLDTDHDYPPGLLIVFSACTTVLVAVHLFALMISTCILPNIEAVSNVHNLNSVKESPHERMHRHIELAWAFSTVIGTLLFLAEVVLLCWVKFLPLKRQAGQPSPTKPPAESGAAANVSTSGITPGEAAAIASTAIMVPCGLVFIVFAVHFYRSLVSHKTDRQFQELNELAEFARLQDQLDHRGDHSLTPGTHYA

[5] = target: T5, mOrai1-hOrai1 ECL2 (…) protein (human/mouse chimera, UniProt Q8BWG9 1-304 (mouse entry)); assay: as above; remark: listed apart in the source
T5 construct: also called Ch
T5 sequence (Q8BWG9 other isoform, or with tags, fused parts or gaps): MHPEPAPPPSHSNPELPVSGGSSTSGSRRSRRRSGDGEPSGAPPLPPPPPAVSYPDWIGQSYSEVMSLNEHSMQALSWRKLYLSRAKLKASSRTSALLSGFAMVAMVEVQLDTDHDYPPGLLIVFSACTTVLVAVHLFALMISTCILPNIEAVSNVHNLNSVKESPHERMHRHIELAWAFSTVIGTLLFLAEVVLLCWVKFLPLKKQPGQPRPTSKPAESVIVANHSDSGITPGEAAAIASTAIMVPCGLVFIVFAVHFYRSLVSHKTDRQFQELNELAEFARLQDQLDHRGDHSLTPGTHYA

[6] = target: T6, mOrai1-hOrai1 ECL2 (KPPAE) protein (human/mouse chimera, UniProt Q8BWG9 1-304 (mouse entry)); assay: as above
T6 construct: also called Ch

[7] = target: T7, mOrai1-hOrai1 ECL2 (…) protein (human/mouse chimera, UniProt Q8BWG9 1-304 (mouse entry)); assay: as above; remark: listed apart in the source
T7 construct: also called Ch
T7 sequence (Q8BWG9 other isoform, or with tags, fused parts or gaps): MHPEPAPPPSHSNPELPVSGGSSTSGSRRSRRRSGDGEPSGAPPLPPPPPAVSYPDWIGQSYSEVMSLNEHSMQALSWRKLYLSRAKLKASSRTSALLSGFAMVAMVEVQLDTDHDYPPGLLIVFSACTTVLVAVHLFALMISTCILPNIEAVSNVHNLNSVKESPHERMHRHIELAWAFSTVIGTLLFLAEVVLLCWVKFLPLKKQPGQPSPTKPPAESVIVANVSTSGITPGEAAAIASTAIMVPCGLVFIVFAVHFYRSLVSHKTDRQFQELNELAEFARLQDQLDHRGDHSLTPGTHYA

[8] = target: T8, hOrai1-mOrai1 ECL2 (PASGAA) protein (human/mouse chimera, UniProt Q96D31 1-301); assay: FACS, 293EBNA; design: concentration or dose not given beside the values
T8 construct: also called Ch
From the text: (§1) FIG. 17A-D illustrates the results of FACS analysis showing binding to the indicated mOrai1-hOrai1 ECL2 chimeric mutants expressed on the surface of HEK-293-EBNA cells. Transfected cells were stained first with recombinant monoclonal antibodies then counter-stained with a secondary phycoerythrin-labeled goat (“Gt”) anti-human (“Hu”) IgG F(ab′)₂ antibody fragment and visualized using FACS.
(§2) Representative results of FACS analysis of binding to the mutant hOrai1-mOrai1 ECL2 chimera described above by exemplary anti-hOrai1 antibodies of the present invention are shown in FIG. 17A-D, Table 10A and Table 10B below. Table 10A (Campaign 1) and Table 10B (Campaign 2) show the gain in binding ability of exemplary monoclonal antibodies to hOrai 1-mOrai 1 ECL2 chimera mutants as determined by FACS.

[9] = target: T9, hOrai1-mOrai1 ECL2 chimeric protein (human/mouse chimera, UniProt Q96D31 1-301); assay: FACS, 293EBNA; design: concentration or dose not given beside the values
T9 construct: human Orai1 with mouse ECL2; also called Ch
From the text: as §1, §2

[10] = target: T10, hOrai1-mOrai1 ECL2 (GAA) protein (human/mouse chimera, UniProt Q96D31 1-301); assay: FACS, 293EBNA; design: concentration or dose not given beside the values
T10 construct: also called Ch
From the text: as §1, §2

[11] = target: T11, hOrai1-mOrai1 ECL2 (AANVST) protein (human/mouse chimera, UniProt Q96D31 1-301); assay: FACS, 293EBNA; design: concentration or dose not given beside the values
T11 construct: also called Ch
From the text: as §1, §2

[12] = target: T12, hOrai1-mOrai1 ECL2 (VST) protein (human/mouse chimera, UniProt Q96D31 1-301); assay: FACS, 293EBNA; design: concentration or dose not given beside the values
T12 construct: also called Ch
From the text: as §1, §2

[13] = target: T13, hOrai1-mOrai1 ECL2 (…) protein (human/mouse chimera, UniProt Q96D31 1-301); assay: FACS, 293EBNA; design: concentration or dose not given beside the values
T13 construct: also called Ch
From the text: as §1, §2

[14] = target: T1, mOrai1-hOrai1 ECL2 (AESVIV) protein; assay: FACS, 293EBNA; design: concentration or dose not given beside the values
From the text: (§3) FIG. 16A-D illustrates the results of FACS analysis showing binding to the indicated mOrai1-hOrai1 ECL2 chimeric mutants expressed on the surface of HEK-293-EBNA cells. Transfected cells were stained first with recombinant monoclonal antibodies then counter-stained with a secondary phycoerythrin-labeled goat (“Gt”) anti-human (“Hu”) IgG F(ab′)₂ antibody fragment and visualized using FACS. In FIG. 16B and FIG. 16D, The values of Relative Fluorescence Intensity as Percent of Control (RFI-POC) are calculated from the relative fluorescence intensity geometric mean (Geo Mean). The geometric mean is an average calculated by multiplying a series of numbers and taking the nth root where n is the number of numbers in the series. It is a statistical average of a set of transformed numbers often used to represent a central tendency in a highly variable data set that minimizes the effects of extreme values.
(§4) Table 11A and Table 11B feature a schematic representation of the POC data from FIG. 16B and FIG. 16D, respectively, where the binding results are recorded as (+++) denoting binding POC from 40% to 100%, (++) for POC of 5% to less than 40%, (+) for POC from 1% to less than 5% and (−) as lack of binding with POC less than 1%.

[15] = target: T9, hOrai1-mOrai1 ECL2 chimeric protein; assay: FACS, 293EBNA; design: concentration or dose not given beside the values; remark: listed apart in the source
From the text: as §3, §4

[16] = target: T2, mOrai1-hOrai1 ECL2 (…) protein; assay: FACS, 293EBNA; design: concentration or dose not given beside the values
From the text: as §3, §4

[17] = target: T3, mOrai1-hOrai1 ECL2 (SPTKPPAE) protein; assay: FACS, 293EBNA; design: concentration or dose not given beside the values
From the text: as §3, §4

[18] = target: T4, mOrai1-hOrai1 ECL2 (…) protein; assay: FACS, 293EBNA; design: concentration or dose not given beside the values; remark: listed apart in the source
From the text: as §3, §4

[19] = target: T5, mOrai1-hOrai1 ECL2 (…) protein; assay: FACS, 293EBNA; design: concentration or dose not given beside the values; remark: listed apart in the source
From the text: as §3, §4

[20] = target: T6, mOrai1-hOrai1 ECL2 (KPPAE) protein; assay: FACS, 293EBNA; design: concentration or dose not given beside the values
From the text: as §3, §4

[21] = target: T7, mOrai1-hOrai1 ECL2 (…) protein; assay: FACS, 293EBNA; design: concentration or dose not given beside the values; remark: listed apart in the source
From the text: as §3, §4

T6 sequence (Q8BWG9 other isoform, or with tags, fused parts or gaps): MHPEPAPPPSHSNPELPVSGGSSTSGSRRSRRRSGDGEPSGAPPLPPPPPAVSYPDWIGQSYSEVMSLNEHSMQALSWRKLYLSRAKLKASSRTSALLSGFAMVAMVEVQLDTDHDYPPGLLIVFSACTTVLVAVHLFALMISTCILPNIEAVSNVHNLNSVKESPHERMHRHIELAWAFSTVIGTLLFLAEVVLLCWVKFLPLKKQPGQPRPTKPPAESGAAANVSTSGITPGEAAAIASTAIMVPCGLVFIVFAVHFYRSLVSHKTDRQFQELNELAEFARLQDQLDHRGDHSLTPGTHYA
T9 sequence (Q96D31 other isoform, or with tags, fused parts or gaps mutant): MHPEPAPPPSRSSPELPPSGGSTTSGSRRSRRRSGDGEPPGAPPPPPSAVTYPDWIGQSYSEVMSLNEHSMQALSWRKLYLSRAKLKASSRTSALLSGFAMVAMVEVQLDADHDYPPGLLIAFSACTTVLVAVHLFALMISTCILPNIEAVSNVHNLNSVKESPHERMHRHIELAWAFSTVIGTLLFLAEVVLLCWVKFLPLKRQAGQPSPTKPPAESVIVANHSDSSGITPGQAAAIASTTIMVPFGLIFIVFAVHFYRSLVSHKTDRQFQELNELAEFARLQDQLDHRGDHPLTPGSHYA
T1 sequence (Q8BWG9 other isoform, or with tags, fused parts or gaps): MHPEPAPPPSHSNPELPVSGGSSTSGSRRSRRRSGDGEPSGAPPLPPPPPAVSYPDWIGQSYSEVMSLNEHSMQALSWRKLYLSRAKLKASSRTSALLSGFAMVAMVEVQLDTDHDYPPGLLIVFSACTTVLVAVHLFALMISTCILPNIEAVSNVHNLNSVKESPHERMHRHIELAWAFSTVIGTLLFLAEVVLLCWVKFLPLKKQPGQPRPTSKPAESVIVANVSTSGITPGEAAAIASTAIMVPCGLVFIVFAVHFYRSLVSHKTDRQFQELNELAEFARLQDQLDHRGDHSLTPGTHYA
T3 sequence (Q8BWG9 other isoform, or with tags, fused parts or gaps): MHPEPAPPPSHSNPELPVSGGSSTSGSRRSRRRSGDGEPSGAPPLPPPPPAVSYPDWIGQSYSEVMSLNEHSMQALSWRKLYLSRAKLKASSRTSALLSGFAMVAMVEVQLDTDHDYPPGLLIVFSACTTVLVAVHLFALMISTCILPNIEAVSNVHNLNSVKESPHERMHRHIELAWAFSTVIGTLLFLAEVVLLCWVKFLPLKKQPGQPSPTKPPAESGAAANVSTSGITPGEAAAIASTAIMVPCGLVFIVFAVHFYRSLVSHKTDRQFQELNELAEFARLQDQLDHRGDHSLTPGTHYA
Chain of human Orai1 (Q96D31 whole entry): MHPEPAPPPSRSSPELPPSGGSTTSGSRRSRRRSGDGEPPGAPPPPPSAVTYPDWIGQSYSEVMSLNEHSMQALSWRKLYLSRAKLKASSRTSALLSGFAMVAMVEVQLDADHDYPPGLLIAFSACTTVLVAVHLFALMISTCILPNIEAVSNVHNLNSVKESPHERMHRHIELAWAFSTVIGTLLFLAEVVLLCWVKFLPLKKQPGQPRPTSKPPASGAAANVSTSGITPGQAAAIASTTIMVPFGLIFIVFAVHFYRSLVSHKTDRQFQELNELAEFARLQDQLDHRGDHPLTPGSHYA
T11 sequence (Q96D31 other isoform, or with tags, fused parts or gaps): as the sequence (Q96D31 other isoform, or with tags, fused parts or gaps mutant) above, with V221A, H224V, D226T counted along it
T12 sequence (Q96D31 other isoform, or with tags, fused parts or gaps): as the sequence (Q96D31 other isoform, or with tags, fused parts or gaps mutant) above, with H224V, D226T counted along it
T8 sequence (Q96D31 other isoform, or with tags, fused parts or gaps): as the sequence (Q96D31 other isoform, or with tags, fused parts or gaps mutant) above, with A216P, E217A, V219G, I220A, V221A counted along it
T13 sequence (Q96D31 other isoform, or with tags, fused parts or gaps): as the sequence (Q96D31 other isoform, or with tags, fused parts or gaps mutant) above, with A216P, E217A, V219G, I220A, V221A, H224V, D226T counted along it
T10 sequence (Q96D31 other isoform, or with tags, fused parts or gaps): as the sequence (Q96D31 other isoform, or with tags, fused parts or gaps mutant) above, with V219G, I220A, V221A counted along it

IC50 IFN-γ, whole blood Donor B (human Orai1): 6.58 nM
IC50 IL-2, whole blood Donor A (human Orai1): 1.39 nM
IC50 IL-2, whole blood Donor B (human Orai1): 3.1 nM
binding result [1]: no binding
binding result [2]: no binding
binding result [3]: no binding
binding result [4]: no binding
binding result [5]: no binding
binding result [6]: no binding
binding result [7]: no binding
percent of control (POC) of FACS Geo Mean [8]: < 1%
percent of control (POC) of FACS Geo Mean [9]: < 1%
percent of control (POC) of FACS Geo Mean [10]: < 1%
percent of control (POC) of FACS Geo Mean [11]: < 1%
percent of control (POC) of FACS Geo Mean [12]: < 1%
percent of control (POC) of FACS Geo Mean [13]: < 1%
POC (percent of control, FACS Geo Mean relative to binding to Ch. 1) [14]: < 1%
POC (percent of control, FACS Geo Mean relative to binding to Ch. 1) [15]: < 1%
POC (percent of control, FACS Geo Mean relative to binding to Ch. 1) [16]: < 1%
POC (percent of control, FACS Geo Mean relative to binding to Ch. 1) [17]: < 1%
POC (percent of control, FACS Geo Mean relative to binding to Ch. 1) [18]: < 1%
POC (percent of control, FACS Geo Mean relative to binding to Ch. 1) [19]: < 1%
POC (percent of control, FACS Geo Mean relative to binding to Ch. 1) [20]: < 1%
POC (percent of control, FACS Geo Mean relative to binding to Ch. 1) [21]: < 1%
B1: mAb 5B5.2 (antibody, human IgG2, lambda, V domains shown)
VH: QVQLVQSGAEVKKPGASVKVSCKASGYTFTDYYINWVRQAPGQGLEWMGWINPNSGGTDYAQKFQGRVTMTRDTSIRTAYMELNRLTSDDTAVYYCAREYGGYEDWFDPWGQGTLVTVSS
VL: QSVLTQPPSVSGAPGQRVTISCTGSNSNIGAGFDVHWYQQLPGTVPKLLIYGNNNRPSGVPDRFSGSKSGTSASLAITGLQAEDEADYYCQSYDSRLTVFGGGTKLTVLG
notes: fully human IgG2 lambda, Campaign 2; same chains as 5B5.1

IC50 IFN-γ, whole blood Donor A (human Orai1): 8.15 nM
IC50 IFN-γ, whole blood Donor B (human Orai1): 1.66 nM
IC50 IL-2, whole blood Donor A (human Orai1): 11.2 nM
IC50 IL-2, whole blood Donor B (human Orai1): 5.59 nM
binding result [1]: no binding
binding result [2]: no binding
binding result [3]: no binding
binding result [4]: no binding
binding result [5]: no binding
binding result [6]: no binding
binding result [7]: no binding
percent of control (POC) of FACS Geo Mean [8]: < 1%
percent of control (POC) of FACS Geo Mean [9]: < 1%
percent of control (POC) of FACS Geo Mean [10]: < 1%
percent of control (POC) of FACS Geo Mean [11]: < 1%
percent of control (POC) of FACS Geo Mean [12]: < 1%
percent of control (POC) of FACS Geo Mean [13]: < 1%
POC (percent of control, FACS Geo Mean relative to binding to Ch. 1) [14]: < 1%
POC (percent of control, FACS Geo Mean relative to binding to Ch. 1) [15]: < 1%
POC (percent of control, FACS Geo Mean relative to binding to Ch. 1) [16]: < 1%
POC (percent of control, FACS Geo Mean relative to binding to Ch. 1) [17]: < 1%
POC (percent of control, FACS Geo Mean relative to binding to Ch. 1) [18]: < 1%
POC (percent of control, FACS Geo Mean relative to binding to Ch. 1) [19]: < 1%
POC (percent of control, FACS Geo Mean relative to binding to Ch. 1) [20]: < 1%
POC (percent of control, FACS Geo Mean relative to binding to Ch. 1) [21]: < 1%
B2: mAb 5A1.1 (antibody, human IgG2)
heavy: QVQLVQSGAEVKKPGASVKVPCKASGYTFTDYYINWVRQAPGQGLEWMGWINPNNGGTNYAQKFQGRVTMTRDTSISTAYMELRRLRSDDTAVYYCARERGGYEDWFDPWGQGTLVTVSSASTKGPSVFPLAPCSRSTSESTAALGCLVKDYFPEPVTVSWNSGALTSGVHTFPAVLQSSGLYSLSSVVTVPSSNFGTQTYTCNVDHKPSNTKVDKTVERKCCVECPPCPAPPVAGPSVFLFPPKPKDTLMISRTPEVTCVVVDVSHEDPEVQFNWYVDGVEVHNAKTKPREEQFNSTFRVVSVLTVVHQDWLNGKEYKCKVSNKGLPAPIEKTISKTKGQPREPQVYTLPPSREEMTKNQVSLTCLVKGFYPSDIAVEWESNGQPENNYKTTPPMLDSDGSFFLYSKLTVDKSRWQQGNVFSCSVMHEALHNHYTQKSLSLSPGK
VL: QSVLTQPPSVSGAPGQRVTISCTGSSSNIGAGFDVHWYQQLPVTAPKLLIYGNRNRPSGVPARFSGSKSGTSASLAITGLQAEDEAVYYCQSYDSSLTVFGGGTKLTVL
notes: fully human, Campaign 2; lambda CL-1
